T1: NLRP1 (wild-type full-length human NLRP1) (human, UniProt Q9C000-1)
T1 sequence: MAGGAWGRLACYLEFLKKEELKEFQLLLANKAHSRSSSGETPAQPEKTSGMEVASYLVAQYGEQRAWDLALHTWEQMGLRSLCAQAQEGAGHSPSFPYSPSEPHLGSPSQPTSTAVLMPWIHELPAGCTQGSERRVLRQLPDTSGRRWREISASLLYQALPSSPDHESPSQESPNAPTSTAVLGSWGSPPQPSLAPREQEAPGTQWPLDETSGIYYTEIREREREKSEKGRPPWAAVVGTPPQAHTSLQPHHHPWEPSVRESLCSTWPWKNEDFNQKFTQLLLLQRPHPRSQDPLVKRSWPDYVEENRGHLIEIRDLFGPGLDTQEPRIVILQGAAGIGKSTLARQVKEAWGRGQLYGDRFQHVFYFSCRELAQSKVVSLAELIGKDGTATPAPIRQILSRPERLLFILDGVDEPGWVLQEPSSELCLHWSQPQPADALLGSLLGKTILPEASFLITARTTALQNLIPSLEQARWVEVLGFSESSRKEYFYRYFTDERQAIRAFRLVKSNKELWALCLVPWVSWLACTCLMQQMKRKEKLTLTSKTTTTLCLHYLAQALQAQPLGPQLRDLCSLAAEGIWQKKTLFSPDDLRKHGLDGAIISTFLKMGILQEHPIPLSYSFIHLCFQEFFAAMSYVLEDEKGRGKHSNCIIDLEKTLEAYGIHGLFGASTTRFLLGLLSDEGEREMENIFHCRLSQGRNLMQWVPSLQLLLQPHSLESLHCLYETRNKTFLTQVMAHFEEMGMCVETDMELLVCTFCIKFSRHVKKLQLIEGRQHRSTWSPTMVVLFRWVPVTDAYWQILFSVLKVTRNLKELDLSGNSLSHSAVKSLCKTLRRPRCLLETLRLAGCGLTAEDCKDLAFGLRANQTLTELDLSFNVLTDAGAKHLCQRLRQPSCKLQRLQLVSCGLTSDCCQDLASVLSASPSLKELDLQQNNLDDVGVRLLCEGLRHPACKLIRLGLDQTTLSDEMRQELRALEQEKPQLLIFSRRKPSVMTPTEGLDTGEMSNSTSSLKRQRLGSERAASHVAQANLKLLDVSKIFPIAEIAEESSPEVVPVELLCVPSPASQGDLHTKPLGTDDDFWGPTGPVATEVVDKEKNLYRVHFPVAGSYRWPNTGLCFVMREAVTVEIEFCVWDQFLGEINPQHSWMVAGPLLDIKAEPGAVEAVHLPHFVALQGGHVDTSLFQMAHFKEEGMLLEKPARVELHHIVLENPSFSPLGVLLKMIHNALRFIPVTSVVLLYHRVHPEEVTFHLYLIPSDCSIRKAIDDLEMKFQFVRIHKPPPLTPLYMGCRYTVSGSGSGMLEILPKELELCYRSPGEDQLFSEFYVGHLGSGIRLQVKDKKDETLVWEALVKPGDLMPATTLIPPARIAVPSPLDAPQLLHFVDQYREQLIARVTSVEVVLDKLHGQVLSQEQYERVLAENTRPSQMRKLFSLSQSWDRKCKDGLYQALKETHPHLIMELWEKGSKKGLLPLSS


Experiments:
[1] = biological target: the molecule itself; assay: SEC + other: negative-stain EM
[2] = biological target: T1, NLRP1 (wild-type full-length human …); assay: co-IP

binding result [2] | Binder | binding result [1]
 | MBP-NLRP1 NACHT-LRR F787_R843del mutant (domain or fragment) GRPPWAAVVGTPPQAHTSLQPHHHPWEPSVRESLCSTWPWKNEDFNQKFTQLLLLQRPHPRSQDPLVKRSWPDYVEENRGHLIEIRDLFGPGLDTQEPRIVILQGAAGIGKSTLARQVKEAWGRGQLYGDRFQHVFYFSCRELAQSKVVSLAELIGKDGTATPAPIRQILSRPERLLFILDGVDEPGWVLQEPSSELCLHWSQPQPADALLGSLLGKTILPEASFLITARTTALQNLIPSLEQARWVEVLGFSESSRKEYFYRYFTDERQAIRAFRLVKSNKELWALCLVPWVSWLACTCLMQQMKRKEKLTLTSKTTTTLCLHYLAQALQAQPLGPQLRDLCSLAAEGIWQKKTLFSPDDLRKHGLDGAIISTFLKMGILQEHPIPLSYSFIHLCFQEFFAAMSYVLEDEKGRGKHSNCIIDLEKTLEAYGIHGLFGASTTRFLLGLLSDEGEREMENIFHCRLSQGRNLMQWVPSLQLLLQPHSLESLHCLYETRNKTFLTQVMAHFEEMGMCVETDMELLVCTFCIKFSRHVKKLQLIEGRQHRSTWSPTMVVLLAGCGLTAEDCKDLAFGLRANQTLTELDLSFNVLTDAGAKHLCQRLRQPSCKLQRLQLVSCGLTSDCCQDLASVLSASPSLKELDLQQNNLDDVGVRLLCEGLRHPACKLIRLGLDQTTLSDEMRQELRALEQEKPQLLIFSRRKPSVMTP | binds
 | MBP-NLRP1 NACHT-LRR R726W mutant (domain or fragment) GRPPWAAVVGTPPQAHTSLQPHHHPWEPSVRESLCSTWPWKNEDFNQKFTQLLLLQRPHPRSQDPLVKRSWPDYVEENRGHLIEIRDLFGPGLDTQEPRIVILQGAAGIGKSTLARQVKEAWGRGQLYGDRFQHVFYFSCRELAQSKVVSLAELIGKDGTATPAPIRQILSRPERLLFILDGVDEPGWVLQEPSSELCLHWSQPQPADALLGSLLGKTILPEASFLITARTTALQNLIPSLEQARWVEVLGFSESSRKEYFYRYFTDERQAIRAFRLVKSNKELWALCLVPWVSWLACTCLMQQMKRKEKLTLTSKTTTTLCLHYLAQALQAQPLGPQLRDLCSLAAEGIWQKKTLFSPDDLRKHGLDGAIISTFLKMGILQEHPIPLSYSFIHLCFQEFFAAMSYVLEDEKGRGKHSNCIIDLEKTLEAYGIHGLFGASTTRFLLGLLSDEGEREMENIFHCRLSQGRNLMQWVPSLQLLLQPHSLESLHCLYETWNKTFLTQVMAHFEEMGMCVETDMELLVCTFCIKFSRHVKKLQLIEGRQHRSTWSPTMVVLFRWVPVTDAYWQILFSVLKVTRNLKELDLSGNSLSHSAVKSLCKTLRRPRCLLETLRLAGCGLTAEDCKDLAFGLRANQTLTELDLSFNVLTDAGAKHLCQRLRQPSCKLQRLQLVSCGLTSDCCQDLASVLSASPSLKELDLQQNNLDDVGVRLLCEGLRHPACKLIRLGLDQTTLSDEMRQELRALEQEKPQLLIFSRRKPSVMTP | binds
binds | CARD8-T60 isoform (full-length) (natural protein) MEKKECPEKSSSSEEELPRRDSGSSRNIDASKLIRLQGSRKLLVDNSIRELQYTKTGIFFQAEACVTNDTVYRELPCVSETLCDISHFFQEDDETEAEPLLFRAVPECQLSGGDIPSVSEEQESSEGQDSGDICSEENQIVSSYASKVCFEIEEDYKNRQFLGPEGNVDVELIDKSTNRYSVWFPTAGWYLWSATGLGFLVRDEVTVTIAFGSWSQHLALDLQHHEQWLVGGPLFDVTAEPEEAVAEIHLPHFISLQAGEVDVSWFLVAHFKNEGMVLEHPARVEPFYAVLESPSFSLMGILLRIASGTRLSIPITSNTLIYYHPHPEDIKFHLYLVPSDALLTKAIDDEEDRFHGVRLQTSPPMEPLNFGSSYIVSNSANLKVMPKELKLSYRSPGEIQHFSKFYAGQMKEPIQLEITEKRHGTLVWDTEVKPVDLQLVAASAPPPFSGAAFVKENHRQLQARMGDLKGVLDDLQDNEVLTENEKELVEQEKTRQSKNEALLSMVEKKGDLALDVLFRSISERDPYLVSYLRQQNL | 
